Test results reported in publication PMC11355449, “The Discovery and Characterization of a Potent DPP-IV Inhibitory Peptide from Oysters for the Treatment of Type 2 Diabetes Based on Computational and Experimental Studies” (Marine Drugs, 2024).
Like-named read-outs stand apart in the source and are kept apart here. No end group written: not given here.

Experiments:
[1] = molecular target: T1, DPP-IV (Homo sapiens, UniProt P27487); settings: read-out: IC50, DPP-IV inhibition, cited from earlier work
T1 construct: purchased Cayman Chemical 700210
T1 sequence (P27487 whole entry): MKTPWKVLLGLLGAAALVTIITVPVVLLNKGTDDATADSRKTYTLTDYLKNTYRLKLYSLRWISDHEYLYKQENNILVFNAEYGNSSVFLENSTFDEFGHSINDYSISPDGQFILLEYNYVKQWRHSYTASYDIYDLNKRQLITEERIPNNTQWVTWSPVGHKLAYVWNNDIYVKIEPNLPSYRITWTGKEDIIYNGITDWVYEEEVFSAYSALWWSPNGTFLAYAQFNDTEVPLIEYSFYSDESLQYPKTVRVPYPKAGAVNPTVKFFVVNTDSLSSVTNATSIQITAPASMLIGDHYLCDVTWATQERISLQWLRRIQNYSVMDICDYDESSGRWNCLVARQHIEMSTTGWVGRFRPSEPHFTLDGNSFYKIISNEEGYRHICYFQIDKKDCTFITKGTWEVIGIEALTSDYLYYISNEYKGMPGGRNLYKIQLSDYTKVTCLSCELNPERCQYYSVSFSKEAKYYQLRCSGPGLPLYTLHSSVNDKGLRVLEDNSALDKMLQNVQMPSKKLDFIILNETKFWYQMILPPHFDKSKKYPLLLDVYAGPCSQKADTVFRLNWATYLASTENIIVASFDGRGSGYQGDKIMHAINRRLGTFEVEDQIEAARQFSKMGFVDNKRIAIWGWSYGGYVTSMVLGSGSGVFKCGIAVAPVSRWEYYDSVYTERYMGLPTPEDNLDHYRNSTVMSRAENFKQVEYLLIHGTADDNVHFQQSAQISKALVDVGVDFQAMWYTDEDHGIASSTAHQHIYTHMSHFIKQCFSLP

[2] = molecular target: T1, DPP-IV; test: DPP-IV inhibitory activity in vitro (Cayman DPP (IV) inhibitor screening assay kit); assay type: biochemical; settings: substrate Gly-Pro-AMC, 37 °C, 30 min, fluorescence 355/460 nm; dose–response range from 0.52 to 3.65 μM; drc package in R; read-out: IC50, DPP-IV inhibition
Description: Based on the results of the virtual screening, the optimal oyster peptide (key peptide sequences with potent DPP-IV inhibition) was selected and synthesized by Wuxi Maimertop Biotechnology Co., Ltd. (Wuxi, China). Then, the synthesized peptide was subjected to the DPP-IV inhibition activity verification. The DPP-IV inhibitory activity was determined following the instructions of commercial kits: a DPP (IV) inhibitor screening assay kit (700210 Cayman chemicals, USA). Briefly, 30 µL of assay buffer, 10 µL of DPP-IV enzyme, and 10 µL of peptide solution were added to a 96-well plate. Then, 50 µL of substrate (Gly-Pro-AMC, Sigma-Aldrich, Saint Louis, MO, USA) was added to start the reaction. After incubation at 37 °C for 30 min, the absorbance of the reaction mixture was detected under excitation and emission wavelengths of 355 nm and 460 nm, respectively. The DPP-IV inhibitory activity was calculated using the following formula:(1) DPP-IV Inhibition (%)=A− B/A×100% where A was the average fluorescence of 100% initial activity (blank) and B was the fluorescence of the sample.
The 50% inhibitory concentration (IC50) of DPP-IV enzyme activity was calculated using the drc package (https://cran.r-project.org/web/packages/drc/ accessed on 20 July 2024) in R 4.1.2.

[3] = food-derived peptides from silver carp proteins
[4] = food-derived peptides from Sorghum bicolor
[5] = food-derived peptides from sheep

For “APGPAG [food-derived peptide from silver carp proteins]”, the IC50 [1, 3] is listed as 229 µM.

For “LPIIDI [food-derived peptide from silver carp proteins]”, the IC50 [1, 3] is listed as 105 µM.

Work on LRGFGNPPT yielded an IC50 [2] of 1.56 µM.

For “LSICGEESFGTGSDHIR [food-derived peptide from Sorghum bicolor]”, the IC50 [1, 4] is given as 73.5 µM.

In the case of “MQEHFTCCR [food-derived peptide from sheep]”, the IC50 [1, 5] is given as 215 µM.

For “QLRDIVDK [food-derived peptide from Sorghum bicolor]”, the IC50 [1, 4] is given as 8.55 µM.

In the case of “RLYLHENK [food-derived peptide from sheep]”, the IC50 [1, 5] is given as 166 µM.

In the case of “SLGESLLQEDVEAHK [food-derived peptide from Sorghum bicolor]”, the IC50 [1, 4] is given as 82.5 µM.
